The values below come from PMC2795092.

For the assay, the target named is purified full-length human hexahistidine-tagged 14-3-3η (human) (UniProt Q04917). The experiment in a line: pull-down.
UniProt Q04917, sequence (Q04917 whole entry): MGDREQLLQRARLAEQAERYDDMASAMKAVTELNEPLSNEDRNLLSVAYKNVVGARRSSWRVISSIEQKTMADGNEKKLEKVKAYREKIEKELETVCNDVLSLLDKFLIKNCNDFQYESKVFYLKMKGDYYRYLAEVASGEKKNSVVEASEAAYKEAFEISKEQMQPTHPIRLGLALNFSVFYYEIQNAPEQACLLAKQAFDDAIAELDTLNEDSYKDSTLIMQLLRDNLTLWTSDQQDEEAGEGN

For “in vitro translated 35S-labeled androgen receptor (AR) (from UniProt P10275 1-920)”, the densitometry of bound [35S] AR worked out at 15000.
